Test results published in US20090149389A1 (PURDUE RESEARCH FOUNDATION, published 2009).
Where no end group is shown, it is not given here. [ ]: non-standard residue; d: D form.

Assays:
MAPKAP kinase II (MK2) [1] = biological target: T1, MAPKAP kinase II (MK2) (UniProt P49137 1-400, limits assumed); assay: cell-based or functional assay
MAPKAP kinase II (MK2) [2] = biological target: T1, MAPKAP kinase II (MK2); assay: cell-based or functional assay; remark: listed apart in the source

T1 sequence (P49137 whole entry): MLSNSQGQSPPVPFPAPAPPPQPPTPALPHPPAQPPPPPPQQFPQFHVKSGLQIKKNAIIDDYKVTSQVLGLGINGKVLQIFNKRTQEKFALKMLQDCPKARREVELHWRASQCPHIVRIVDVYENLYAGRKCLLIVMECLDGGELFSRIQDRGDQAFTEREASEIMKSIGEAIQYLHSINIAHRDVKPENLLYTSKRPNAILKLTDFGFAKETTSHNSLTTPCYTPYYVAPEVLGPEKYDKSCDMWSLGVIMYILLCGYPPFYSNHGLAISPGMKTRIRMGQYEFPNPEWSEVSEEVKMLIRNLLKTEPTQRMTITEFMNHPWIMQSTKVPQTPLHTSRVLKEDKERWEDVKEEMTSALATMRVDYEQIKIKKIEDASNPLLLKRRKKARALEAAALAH

Row | Binder | % of … [SEQ ID NO: 124] Reaction Velocity at an Inhibitor Concentration of 100 µM (MAPKAP kinase II (MK2) [1]) [%] | % of Blank Reaction Velocity at an Inhibitor Concentration of 6.25pN (MAPKAP kinase II (MK2) [2]) [%]
1 | KALNRQLAVAA | 72 | –
2 | KALNRALGVAA | 358 | –
3 | WLRRIKAWLRRIKALNRQLAVA | – | -2.1
4 | KALNAQLGVAA | 358 | –
5 | KALNRQLGVA | 100 | –
6 | KKKALNRQLGVAA | 91 | –
7 | KAANRQLGVAA | 152 | –
8 | WLKKIKAWLKKIKALNRQLGVVA | -32 | –
9 | KALNRQAGVAA | 118 | –
10 | WLRRIKAWLRRIKKKALARQLAVA | – | 1
11 | WLRRIKAWLRRIKALARQLAVA | – | 3.3
12 | KALNRQLGVAA | 100 | –
13 | WLRRIKAWLRRIKALARQLGVA | – | 3.9
14 | KALNRQLGAAA | 373 | –
15 | KALNRQ[dL]GVAA [KALNRQdLGVAA] | 357 | –
